{"source": "the nanobody polyreactivity screen of Harvey et al. (2022)"}
{"experiment": "yeast display, Sf9 membrane polyspecificity reagent, FACS + sequencing; frameworks hold sequencing errors", "summary_of_the_method": "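Galactose-induced (36–48 hours) yeast carrying a synthetic nanobody display library were exposed to 10% biotinylated, detergent-solubilized Sf9 membrane reagent at 4 °C for 1 hour. FACS followed streptavidin microbead enrichment, using low and high (top ~1%) gates for expression (anti-HA) and reagent binding (streptavidin). Colony PCR, MiSeq 2 × 250 sequencing and CDR-length filtering followed. Labels for polyreactivity reflect the gate of origin.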"}
{"sequence": "QVQLVESGGGLVQAGGSLRLSCAASGRIFYKYTMGWYRQAPGKERELVAAITDSDDSTYYADSVKGRFTISRDNAKITVYLQMNSLKPEDTAVYYCAASGPVTESDMDYWGQGTQVTVSS", "polyreactivity (PSR sort gate)": "low polyreactivity"}
{"sequence": "QVQLVESGGGLVQAGGSLRLSCAASGRIFYLNAMGWYRQAPGKERELVAAISSRGSRTYYADSVKGRFTISRDNAKNTVYLQMNSLKPEDTAVYYCNVRQRKQPDTDDYWGQGTQVTVSS", "polyreactivity (PSR sort gate)": "high polyreactivity"}
{"sequence": "QVQLVESGGGLVQAGGSLRLSCAASGRIFYLNAMGWYRVAPGKERELVAAITRSAASTHYADSVKGRFTISRDNAKNTVYLQMNSLKPEDTAVYYCAARFWYDYRHYDYWGQGTQVTVSS", "polyreactivity (PSR sort gate)": "low polyreactivity"}
{"sequence": "QVQLVESGGGLVQAGGSLRLSCAASGRIFYLYAMGWYRQAPGKDRELVAAITWSGGSTTYADSVKGRFTISRDTAKNTVYLQMNSLKPEDTAVYYSNADGWIFPSFSPMDYWGQGTQVTVSS", "polyreactivity (PSR sort gate)": "low polyreactivity"}
{"sequence": "QVQLVESGGGLVQAGGSLRLSCAASGRIFYLYAMGWYRQAPGTEREFVASITVSGSSTYYADSVKGRFTISRDNAKNTVYLQMNSLKPEDTAVYYCNTDAVRSYVWWGTSLYDYWGQGTQVTVSS", "polyreactivity (PSR sort gate)": "low polyreactivity"}
{"sequence": "QVQLVESGGGLVQAGGSLRLSCAASGRIFYLYGMGWYRQAPGKERELVAAIDWSDGSTYYADSVKGRFTISRDNAKNTVYLQMNSLKPEDTAVYYCAADGWAAWLYDYWGQGTQVTVSS", "polyreactivity (PSR sort gate)": "low polyreactivity"}
{"sequence": "QVQLVESGGGLVQAGGSLRLSCAASGRIFYLYTMGWYRQAPGKEREFSTYYADSVKGRFTISRDNAKNTVYLQMNCLKPEDTAVYYCAAADHPPVWYGYWGQGTQVTVSS", "polyreactivity (PSR sort gate)": "low polyreactivity"}
{"sequence": "QVQLVESGGGLVQAGGSLRLSCAASGRIFYLYTMGWYRQAPGKERELVAAITRAGRTYYADSVKGRFTISRDNAKNTVYLQMNSLKPEDTAVYYCAAAFLSRVQGYDSWGQGTQVTVSS", "polyreactivity (PSR sort gate)": "high polyreactivity"}
{"sequence": "QVQLVESGGGLVQAGGSLRLSCAASGRIFYNNVMGWYRQAPGKERELVAAISGNGGSTYYADSVKGRFTISRDNAKNTVYLQMNSLKPEDTAVYFCAADDLYTDYETWWRRGDYWGQGTQVTVSS", "polyreactivity (PSR sort gate)": "low polyreactivity"}
{"sequence": "QVQLVESGGGLVQAGGSLRLSCAASGRIFYNYAMGWYRQAPGKERELVAAITGGASTYADSVKGRFTISRDNAKNTVYLQMNSLKPEDTAVYYCAVDYYTYSLASGRTRMDYWGQGTQVTVSS", "polyreactivity (PSR sort gate)": "high polyreactivity"}
{"sequence": "QVQLVESGGGLVQAGGSLRLSCAASGRIFYNYVMGWYRQAPGKERELVAAISSSGGSTYYADSVKGRFTISRDNAKNTVYLQMNSLKPEDTAVYYCGTTRRVPGEYWGQGTQVTVSS", "polyreactivity (PSR sort gate)": "high polyreactivity"}
{"sequence": "QVQLVESGGGLVQAGGSLRLSCAASGRIFYPNAMGWYRQARGKERELVAGISSGGGRTYYADSVKGRFTISRDNAKNTVYLQMNSLKPEDTAVYYCATVGRGYDERHNYWGQGTQVTVSS", "polyreactivity (PSR sort gate)": "high polyreactivity"}
{"sequence": "QVQLVESGGGLVQAGGSLRLSCAASGRIFYPNVMGWYRQAPGKERELVAAITWSSGSTYYADSVKGRFTISRDNAKNTVYLQMNSLKPEDTAVYYCAAGLRWHRKFYYWGQGTQVTVSS", "polyreactivity (PSR sort gate)": "high polyreactivity"}
{"sequence": "QVQLVESGGGLVQAGGSLRLSCAASGRIFYPYAMGWYREAPGKERELVAAITVRGGRTYYADSVKGRFTFSRDNAKNTVYLQMNSLKPEDTAVYYCAARRWGAYRHGYWGQGTQVTVSS", "polyreactivity (PSR sort gate)": "high polyreactivity"}
{"sequence": "QVQLVESGGGLVQAGGSLRLSCAASGRIFYPYAMGWYRQAPGKERELVAAIDKGGGSTYYADSVKGRFTISRDNAKNTVYLQMNSLKPEVTAVYYCAAGWEYPYDYWGQGTQVTVSS", "polyreactivity (PSR sort gate)": "low polyreactivity"}
{"sequence": "QVQLVESGGGLVQAGGSLRLSCAASGRIFYPYAMGWYRQAPGKERELVAAISRSGGSTYYADSVKGRFTISRDNAKNTVYLQMNSLKPEDTAVYYCAARRGFGPDGEMDYWGQGTQVTVSS", "polyreactivity (PSR sort gate)": "low polyreactivity"}
{"sequence": "QVQLVESGGGLVQAGGSLRLSCAASGRIFYPYAMGWYRQAPGKERELVAAISRSGGSTYYADSVKGRFTISRDNAKNTVYLQMNSLKPEDTAVYYCAKVTSSGDAVLTQIPYGYDYWGQGTQVTVSS", "polyreactivity (PSR sort gate)": "low polyreactivity"}
{"sequence": "QVQLVESGGGLVQAGGSLRLSCAASGRIFYPYAMGWYRQAPGKERELVAAISSSGGSTYYADSVKGRFTISRDNAKNTVYLQMNSLKPEDTAVYYCNKYSYTYQNPYDSWGQGTQVTVSS", "polyreactivity (PSR sort gate)": "high polyreactivity"}
{"sequence": "QVQLVESGGGLVQAGGSLRLSCAASGRIFYPYAMGWYRQAPGKERELVAAITGRGGSTYYADSVKGRFTISRDNAKNTVYLQMNSLKPEDTAVYYCATVQSGRVRTYDYWGQGTQVTVSS", "polyreactivity (PSR sort gate)": "high polyreactivity"}
{"sequence": "QVQLVESGGGLVQAGGSLRLSCAASGRIFYPYAMGWYRQAPGKERELVAAITWSGGSTYYADSVKGRFTISRDNAKNTVYLQMNSLKPEDTAVYYCAKDHSYGAYYYWGQGTQVTVSS", "polyreactivity (PSR sort gate)": "high polyreactivity"}
{"sequence": "QVQLVESGGGLVQAGGSLRLSCAASGRIFYPYVMGWYRQAPGKERELVAAISDTTGSTYYADSVKGRFTISRDNAKNTVYLQMNSLKPEDTEVFYCAAGWFYATYWRFYYWGQGTQVTVSS", "polyreactivity (PSR sort gate)": "low polyreactivity"}
{"sequence": "QVQLVESGGGLVQAGGSLRLSCAASGRIFYQNAMGWYRQAPGKARELVADSASGGSTYYADSVKGRFTISRDNAKNTVYLQMNSLKPEDPAVYYCATAVLYGDGWYYYWGQGTQVTVSS", "polyreactivity (PSR sort gate)": "low polyreactivity"}
{"sequence": "QVQLVESGGGLVQAGGSLRLSCAASGRIFYQNPMGWYRPAPGKERELVADISSGGSTYYADSVKGRFTISRDNAKNTVYLQMNSLKPEDTAGYYCNTPSGPGTVGSYRRIWYGYWGQGSQVTVSS", "polyreactivity (PSR sort gate)": "low polyreactivity"}
{"sequence": "QVQLVESGGGLVQAGGSLRLSCAASGRIFYQYAMGWYRPAPGKERELVAAIRWSGGSTYYADSVKGRFTISRDNAKNTVYLQMNSLKQEDTAVYYCNARYPYWGAYYDYDYWGQGTQVTVSS", "polyreactivity (PSR sort gate)": "low polyreactivity"}
{"sequence": "QVQLVESGGGLVQAGGSLRLSCAASGRIFYRNAMGWYRKAPGKEREWVAAISSSAGSTFYADSVKGRFTISRDNSKNTVYLQMNSLKPEDTAVYYCAAGSGTFVTRYRYGYWGQGTQVTVSS", "polyreactivity (PSR sort gate)": "high polyreactivity"}
{"sequence": "QVQLVESGGGLVQAGGSLRLSCAASGRIFYRNAMGWYRQAPGKERELVAAISRSGGTTYYADSVKGRFTISRDNAKNTVYLQMNSLKPEDTAVYYCAALVPYSYPGYYYWGQGTQVTVSS", "polyreactivity (PSR sort gate)": "high polyreactivity"}
{"sequence": "QVQLVESGGGLVQAGGSLRLSCAASGRIFYRNAMGWYRQAPGKERELVAAISYSGGRTYYADSVKGRFTISRDNAKNTVYLQMNSLKPEDTAVYYCAARYAWGYVDPGDYWGQGTQVTVSS", "polyreactivity (PSR sort gate)": "high polyreactivity"}
{"sequence": "QVQLVESGGGLVQAGGSLRLSCAASGRIFYRNAMGWYRQAPGKERELVAAITGSGGSTYYADSVKGRFTISRDNAKNTVYLQMNSLKPEDTAVYYCNKPYFLYRPLGTGMEYWGQGTHVTVSS", "polyreactivity (PSR sort gate)": "high polyreactivity"}
{"sequence": "QVQLVESGGGLVQAGGSLRLSCAASGRIFYRNAMGWYRQAPVKERELVASITWRGGRTYYADSVKGRFTISRDNAKNTVYLQMNSLKQEDTAVYYCNAAPRTYNAWDFDYWGQGTQVTVSS", "polyreactivity (PSR sort gate)": "high polyreactivity"}
{"sequence": "QVQLVESGGGLVQAGGSLRLSCAASGRIFYRYAMGWYRQAPGKERELVAAINDGGSTYYADSVKGRFTISRDNAKNTVYLQMNSLKPEDTAVYYCNVVNEHQSDFVVPFDYNHWGQGTQVSVSS", "polyreactivity (PSR sort gate)": "low polyreactivity"}
{"sequence": "QVQLVESGGGLVQAGGSLRLSCAASGRIFYRYAMGWYRQAPGKERELVAAISGSVGSTYADSVKGRFTISRDNAKNTVYLQMNSLKPEDTAVYYCARETYRRYGAYDYWGQGTQVTVSS", "polyreactivity (PSR sort gate)": "low polyreactivity"}
{"sequence": "QVQLVESGGGLVQAGGSLRLSCAASGRIFYRYAMGWYRQAPGKERELVATISRSGGSTNYADSVKGRFTISRDNAKNTVYLQMNSLKPEDTAVYYCNALYLSTRSGDYWGQGTQVTVSS", "polyreactivity (PSR sort gate)": "high polyreactivity"}
{"sequence": "QVQLVESGGGLVQAGGSLRLSCAASGRIFYRYGMGRYRPAHGKVRELVASITRGGSTYYADSVKWRFTISRDNAKNTVYLQMNSLKPEDTAVYDSNRDIGGTSVLDDYWGQGTQVTVSS", "polyreactivity (PSR sort gate)": "low polyreactivity"}
{"sequence": "QVQLVESGGGLVQAGGSLRLSCAASGRIFYRYGMGWYRQAPGKERELVASITRGGSTYYADSVKGRFTISRDNAKNTVYLQMNSLKPEDTAVYYCNAQTRYRYQYGYLGGTGYNYWGQGTQVTVSS", "polyreactivity (PSR sort gate)": "low polyreactivity"}
{"sequence": "QVQLVESGGGLVQAGGSLRLSCAASGRIFYRYGMGWYRQAPGKERELVASITRGGSTYYADSVKGRFTISRDNAKYTVYLQMNSLKPEDTAVYYCATKSSAGYDYWGQGTQVTVSS", "polyreactivity (PSR sort gate)": "low polyreactivity"}
{"sequence": "QVQLVESGGGLVQAGGSLRLSCAASGRIFYRYSMGWYRQAPGKERELVAGISSGGRTNYADSVKGRFTISRDNAKNTVYLQMNSLKPEDTAVYYCNKARSRWSDARSSFGYDYWGQGTQVTVSS", "polyreactivity (PSR sort gate)": "low polyreactivity"}
{"sequence": "QVQLVESGGGLVQAGGSLRLSCAASGRIFYSNAIGWYRQAPGKERELVAAIRDSAGSTRYADSVKGRFTISRDNAKNTVYLQMNSLKPVDTAVYYCNKDYVSIYFEYLDDYWGQGTQVTVSS", "polyreactivity (PSR sort gate)": "low polyreactivity"}
{"sequence": "QVQLVESGGGLVQAGGSLRLSCAASGRIFYSNAMGWYRQAPGKERELVAAIRDSAGSTRYADSVKGRFTISRDNAKNTVYLQMNSLKPEDTAVYYCNKDYVSIYFEYLDDYWGQGTQVTVSS", "polyreactivity (PSR sort gate)": "low polyreactivity"}
{"sequence": "QVQLVESGGGLVQAGGSLRLSCAASGRIFYSYAMGGYRQAPGKERELVAAISSAGSTYYADSVKGSFTISRDNAKNTVYLQMNSLKPEDTAVYYSAKGIWPYHGYRLQRVYDSWGQGTQVTVSS", "polyreactivity (PSR sort gate)": "high polyreactivity"}
{"sequence": "QVQLVESGGGLVQAGGSLRLSCAASGRIFYSYAMGWYRQAPGKELELVAAIDESDGSTYYADSVKGRFTISRDNAKNTVYLQMNSLKPEDTAVYYCAADSLLVLFDYWGQGTQVTVSS", "polyreactivity (PSR sort gate)": "low polyreactivity"}
{"sequence": "QVQLVESGGGLVQAGGSLRLSCAASGRIFYSYAMGWYRQAPGKERELVARISSGGSTNYADSVKGRFTISRDNAKNTVYLQMNSLNPEDTAVYYCAAATIWSGVHYGYWGQGTQVTVSS", "polyreactivity (PSR sort gate)": "low polyreactivity"}
{"sequence": "QVQLVESGGGLVQAGGSLRLSCAASGRIFYSYAMGWYRQAPGKERELVAVITYRGGRTYYADSVKGRFTISRDNAKNTVYLQMNSLKPEDTAVYYCARDPQFYLHTVTDGAYNYWGQGTQVTVSS", "polyreactivity (PSR sort gate)": "low polyreactivity"}
{"sequence": "QVQLVESGGGLVQAGGSLRLSCAASGRIFYSYGMGWSRQGPGKERELVASITISGGGSTYYADSVKGRFTISRDNAKNTVYLQMISLKPEATAVYYCAATLTVWKYIYDYWGQGTQVTVSS", "polyreactivity (PSR sort gate)": "high polyreactivity"}
